test: soluble on expression in E. coli; label from the status in PepcDB or PDB records

| Sequence | soluble on expression in E. coli |
| --- | --- |
| GPGSMPAKKKEVKVDEPLFVDEEGSYVHEAEGARYKGGVRRYAPPGGTDAGGTAAPPAKNSRSRSTSSPGKGGATPPPSAAAGAAASMAVVSDAPVFRHGRGVYTCPSFTYAGDWVEDEMHGSGQLTFVESGNIYEGEFSHGCFSGQGTYQWRDGALYCGQWRSNRMHGEGIYTDVQGHVWKGRYYNGTGPGLIRLYPTLERVDDAGPSSPGPDATNAAATVANS | soluble |
| GPGSMPNPLVRLGKELKEATEHPDPDIHLELYDPTKGSDGSRSSQGAALQPSQQQPGLYTWLAILKGPPDTPFAGGSYRLVLSIPHEYPLVPPKAAFITKVFHPNVEFNTGNVCLDILKKRWSPVWTLSSVCRAILNLLAEPESDSPFNCDAGNLLRAGDMEGYASLVRYYAITDAGAPPFADNEE | not soluble |
| GPGSMPTRPLLVKYETPVLLSEVKHKKALKEKKRVAVGAQSGPQAEDVLYSIIPPREFEENGQQWVQYVSSIPATRMDVINLQERLDSLLLERNARETGICPVREELYSQVFDELIRQVTVNCAERGLLLLRVRDELRMTLDAYRSLYESSAAYGMRKALQAEQSKIEMESKIQALEREKEELKQQVEELEYRCESIIQQEKEKFAEAERKHNEEVAFFRRTYQTLTTNLQTLCNATKA | soluble |
| GPGSMRRLFPTAKLLGSTTGIRLASMKSSDKERLERLVEEVNGIKSKLKVLEESKAANGLVDLYASRKMKRLDIKRILGIFNDRAYHAPIFCHKALPIILAHFITGLDRLPSGLNAMPSILAVRATLLRSFQKLINCKIPATDDQVQHFRRVLEDIDEEHAERNLLQTMAFGILELKEYVSSHRRALVDLKKTSERWASIPMTEENVLTYAEIQDIQAPLDSVNRCMITYNFISRMFLNHDPDMTMSSNPRRIGMVDLEMNLEHVVRNAVDEAKQICTDHYGDCPDTEFELTSDTKAFRFPYMSTTIRYIILELMKNAFRATVDSHMKRNDVGMVTCADMPPVRVLINLQEGTEHACICISDEGMGMTDEALTMAMAYSYTSVSKPALQLGESGERCASTAPSPLAGYGYGLPMSRVYAQSLGGDLLLQTMEGYGTRAYYYIKIADAQPLCDEETK | soluble |
| GPGSMRSAVTCIKSPGAALFTDTATCRTITLSRPDALNVMSLPMVQDLHRLYITEPHPNEDAVYVVRGDGRRSFCAGGDLKALTGPERDTHNPLFYRLEYEVDSHIAVMRRTQVAMWAGHVLGSGVGVSVHSRYRVACETTRFAMPETQIGGANDVATSWVFSSLPICGLGMYLAITGNALQGADVFHAGLATHYIPVEKFGAVEAALAALPSSEGVEECLRGFSEDVAVPPFTLAESAPVLAKAFGTITPWTRLRDIMDVLRADGSAFAASTLEVMERNSPLGMTLALENMKRQHTPGCNTVMESFRGDYTAIQTSIFADELAKGVEALFVTKEKRPQWTVESVDEVDVELVKQQFALTEGVRVSAGGKDGRACFGVFGCYRAQASPVG | soluble |
| GPGSMSAGGRETAPMNLLRRRNKDEINGDVNAAADRFRNRFEKATLEERKAATTTMVNEYYDLVTDFYEYGWGQNFHFAPRYAGETFFESLARHEYFLAARGGFMEGDHIVDVGCGVGGPARNIVRLTRCNVTGVNNNDYQISRARRHDALAGMSCKIDYVKTDFCNMSLADNTFDGAYAIEATCHAKDKVKCYSEVFRVIKPGTCFVLYEWCMTDKYNPNDEYHRTIKHRIELGDGLPEMETCKQVIEYMKEAGFVVEEAIDVISQFESSPIKSIPWYQPLVGDYSSLQGLRSTPIGRILTNIMCRVLEFVHLAPKGTYKATEVLEEAAESLVVGGQLGIFTPSFYIRARKPSKQA | not soluble |
| GPGSMSARPSVSVYSASSDSVVGTCPLPAVFTAPIRSDIVKFVHTNMAKNSRQAYAVNRLSGMNHSAHSWGTGRAVARIPRISGGGTSTSGAGAFGNMCRGGRMFAPTKIFRRWHRKINLHQKRFAVVSALAASSVPSLVMSRGHQIGNVPEVPLVVEDSIQGYEKTKEAMAFLKAIAAIDDVNRVNDSREIRAGRGKMRNRRYVARRGPMLVMPNNKGTRAFRNIFGLDLANVSALNLLHLAPGGHVGRFVIWTQSAFEQLDKIFGTFTEASAVKKGFTLPAPMLTNTDVTRIMQSEEVRRVLKPKKLQAKKASRFQTPTNGMKNRRLRLRLNPYVKRETAAAKGMRNVANRDARRKAKLARVTKAKKAATKSAKQ | not soluble |
| GPGSMSKGAVVLVLDITLPRAAALVEACNLCDRILTDKMIYAPSDEVSVILAGTEKSRSALYEQSVQARYNHITVAAELGPATSLTLAPIAATRAGVAVLPEGETVRPSIAEAYDFIDALQVAVAVLQARTSQKKYNRCIYFLTDARHEVRHKEDLLSLIDILQRDQVALVVIGFDFQALPAPADSQGEFNESTTVVPSAWAALDRKAQNERILAALCTELGPPSTLVSPAEALASLSLLRCRRIRQQPVLKVALRMGDVRLATQLFTLTQEERLPSLRRSTQDGVDVAQTIEYVVLGGVEERPCALAKEERVEAFFLGVDRISCSEADREAMRVKGPRALEAIGFVGEAEVEPYLLMGGTRALLPLAGDHAGQRGFNALVDAMASSRKAMLVRLVRTADAAPSLCVCFARTAGSSAAQRHLVLAPLPFAEDVRALRFSEYPELQFSAAEEQLMDELIDGLSVDDSVLAPHDTFNPVLQQYYATLRAKLSAMNVSAEKGNTKATSPEAAVPQLLPTLRGTSTDFFAEGSEVYEVVSAHRSALVSCATAFPYEDEADALLSGSRDAGRKGKPWYQDVAMTPSLIGPQAGSPPPAAQGSDGAPSTIAPAIAGGARCGGEADEASAGSHTASDANSISTVPHDTISGGVSFAITSVDPVGSFSMIVHHPAVTEAQLNKAKDDLSDVIWELLRSSIKDAIYRKCMACIMALRQFCVTQDDAAYYNDFLLKLEVVARQCSRDADFWVPYVVERKDGANVWPITAQECKSAALPDDTAAKAFLQKDRFDPAIAFDDTADDDDWLAEIQ | not soluble |
| GPGSMSLLKGKEVEVTQDDQRRICIFARMHRRRKELTATITRLKEQAAKLSDASDELMIADGAMYLFGETFVAIDNDEAGEWLAKEQAQLQRDQETTEEELKLVESQLSDLKAKLYASLGSQVYLEDE | soluble |
| GPGSMSNAVSGVIDARWMRFLRECKQRELVAEIEVLRRTFEATLDRKKGFSTTLLEELSVAEEQCRHAFRSHMDVVSSLLQLHAARTKDLEADLDANVAEMQQDFEYERAELELKHMIEMDDLRLILDNMAAEAEMLEKKLQEETSEGHETAAEKMDEAMREMEADLNKVEDGLRGELDSRYKKFMSAAQANMKEYTAKCKEDQETTERIAAQLRKIEKLQSSVSSWRTNIARNAKEWEDRNAAIQAERDATLSHLKKLKDKMQRWRELQSKALVELVKEANATEEALQATSKRAVRLLRLVELCKPMETEREQVLLHEANISSAAVEAETKRRVAAESSGNAQDDVLRGGDAAPAANEQWLSLDRFWVKHNKVVLDNAALTQERFLLEEENRVLQEVLKQYLDDVSISDQVMRQSNTLLLTQGANYNVVQAANASDNSVVRGYNVIEGNKFVNDQSRQAISH | not soluble |
| GPGSMTALSLALGIHDQATTKFGSKDFCDAVEAEAAAANAHQYRMFLLAMETLLQRQWEHYCFHGGNHITKSQQLEEKRLCRYFSVHCMNMEGRGCRDERKHRKLFGSGAAGPLIDFIYRLICHSHCSIECYPITLALTGRFFVEMRKESVATEYEAAVDHLPCVFAVLLLITAKYRDDNFRSNRYFSQLAELSLMEWNALERLVIRVLRFNVNVPFYEYVAYEKLLLKEMMRQEEKKCGFPSIDQSPRSEKMESLMHLDSKNDMSMLFFDHVEMAMKDNASFHSCGVTASSPSLRSQCPLMSVEDSPVSWRQGV | not soluble |
| GPGSMTDDSSGLQSELSHALEGEGNLSVDAMLSQSLVKADLQTPSARILLKKIERPPGRFDLLTNSLVYSWQTTAAQARKVTGPMREWASELKYRTGVHLEVEPTNPTRLGVPEEEGGYAAADDVELTVYLFGSERGIFNCRQLMETALDQNPAYVRLAVFRRRPGKGVSTSTAAVPRPQEDVEWLLLRRINRDLRPPDIPPISLKTPGKWTLLYEQYKEAAIRTLWEETGITVEAGNVYPTAVLCQDNPIYYWRVPVHYFLAEVPYDVQVLGPQVGLNTYMHHWDSSLLRQSPDPIDRAWAQLADPETGCAWMKQPMIDELQRPLRGENYMATRYTPPPYSQLNHALGLAVPAEAAGEASAADSALSAATTAEGGEAQDDVKEDDAAAPSADADASSSNDKPSS | soluble |
| GPGSMTGLTVPRGEYTNVVVHHRMVGVSAFDDQFNCDWNFELYGVAERIKEHHGGAISDGFRMWLNRVEPGFIVRNFKQSLREAFGLTPPSALLMTSEEDIPHHEVTVYYDFEPAALRFPLLNIRLGE | soluble |
| GPGSMTVRRMFCFLLPPPSHHRLSRSSLAHAHLPHIRMSAHFAQCRSTHVHTYTHTHVHTHDTLARAACRLCTSSPPVRAREMALLAPKALHKRVKGTNVEVRKEVTDDNTDAQLALLYSIHADDETELRWLHNTLRPERNLVHPSDAFLHGIKALHPAAVFNTFDVKKAKLRRLTKYEKDKETAMKRRKKEVAPTAAYKAAVNPHKTPRTGGAAPADEVRVLSRGMNKAQKARSRTRTAHKSGKVVNGAEAPKGFFTKWKKRKLEKIGRGL | soluble |
| GPGSMTYKLLAPLHPESARAQKIMVAAAYANVDVELKVCQYGQENETPEFARNCSPCMRFPSMQTEEGYLFESNAIMRHIARVEKSGAKLYGATPFESSQVDMWLDFASSELDAHNTPYLMETFAGIPAPESAMATLEESLAGLELWLETRTFLVGERMTVADISVAFALQWVYRMNVKHGEELTKKYRNAYRLYNTVMQQPKTVEVLKQWGATFGPAKAPKKAAEAKPKEGKKPKEAVEDEEEQPAKEEKKSNPLDALPPSSFVLDAYKREYSNTDTRTVAAPYFFEHYDAEGYTCFWARYKYNEDNKKQFMTANLVRGWFQRMEHVRKYAFGVALIIGEDAAHELVSFWVFRGKGMPEIVSEVVDTELFEWEEIKDVQAAKEKITDYLCWEGPTIPRPVLEGRCFK | soluble |
| GPGSMTYYRERRKTLTVQGLKDAVQESLAKYLYDNAIFCAERLYALAPTHESLHTVAHCYVTSGDAGTAYRILRAHYPYLLSATPSFATTNSSTSGNGTGVGSNTAADAAARWDCQYLLGVTCGMTQRYMEGESFLEELERQQSSSEVLYWLGVCRRHLRRGYAEEAFAKSAVLDPLNFVAFENHVKMTRTPREEVRCIYTDAAPGVGAEDAVRRSSMSGMGIGGVGGAHRHVKREALRLYLSPFASVTFLQWTYRCKEARALLQHESFPERDSGWAFGALAMAYFHDGDVENSTVEFANMRRVAPWRLADPALVYYSTALWQRKELGTLGSLSQTLINEMPASPITLCVVANNYSLAKESKESLCMLNRAIQVDHDFAYAHTLRGYELLYLDLKSEAVDAFHEAILIDGGHYNAYAGLGELYFRSEDLQKARNYFQQAISINPLPTIMNRYAATYHRRDATRESLNEALRIYESAIRRHPTNLGARHQRAEVLIRLGRFHEAHDELLGMTKECPDEAMLYVTLAKCVHLMGLTGQAVQYYHTAMDLDPRRVGYIKSCLERLAMGKPDVAEANA | not soluble |
| GPGSMVAKQSTAKGGSRYPPLTADQEKEVTELMELMRTKYDPLPQQLLALQRYNPQMEGTASEGAVAGTFFSPIRNYCYYFLISREWDRQKSFEMMQLSVSYREKNELDSRAELPSAICCRGWEQEKVRIALDKPARPTSQRLDRLSAGIEQYFTFGLHYWDKHGQPVVYLNLGSVDEPGLLKKLKQLANIGQTPNLVMWELVQHLIGVQEQLLFYQQMQYAAGTLKAEADDGLIRSATIVIDLNGLTYKMLWKPALDLFMNMLQTLFQYYPKCVHQILLVNSPPMVMFAYKIVRGALPHGVQRKVHIVNVADTPATMQSFIDAQYVPDYLGGLCHCEGGCVRGYDPHQRGTMKDSGTAKSDTRNVQSGDQDDEAGVVTEEITLKAGQELKRAFSLKRAESVVWEFVSANGRDVAFSTYFVPKKAAPSIDTSKLPTSMLESYVVSKASPSEGSDKYTASDDGIFVIVWDNKKSWFTAKYLQLNVFKQAATLTDGA | not soluble |
